From US9617330B2, “Chemorepulsion of cells” (Celtaxsys, Inc., priority 2006, dated 2017)

Columns and labels:
B cells = assay: High throughput transmigration assay (Example 9), chemorepulsion; format: cell-based, human; parameters: key: ratio of chemorepulsion (CR) to spontaneous migration (SM), CR/SM; conditions: mean of three donors at concentration of highest activity, range 0.00125-1.25 μM
Text: (§1) An agent's repellent index is the ratio of chemorepulsion (CR) to spontaneous migration (SM) induced by the agent, i.e., [(CR)/(SM)]. […] For example, in calculating a RI for an agent, migratory responses including chemorepulsion (CR) and spontaneous migration (SM) may be measured over several decades or log scales of concentration. If, over any two consecutive measurements at concentrations which differ by at least 10 fold, the ratio of CR to SM at each of the two contiguous measurements is equal to or greater than 1.2, then the agent is considered a validated chemorepellent.
(§2) For primary human T cells, up to 80 ml of blood is drawn from a human donor in sodium heparin Vacutainer tubes (Becton-Dickinson). The blood (between 10 and 15 ml per tube) is then layered onto 30 ml of Lymphocyte Separation Medium (LSM) (Cellgro, Herndon, Va.) in a 50 ml conical centrifuge tube and centrifuged for 20 minutes at 2440×g in a swinging bucket rotor. After removing the majority of the plasma from the top of each tube, the peripheral blood mononucleocyte (PBMC) layer is removed and transferred to fresh 50 ml conical centrifuge tubes. The tubes are then filled to 50 ml with IMDM and centrifuged for 10 minutes at 500×g. All but approximately 5 ml of the supernatant is then removed and the pellet resuspended with 25 ml IMDM and the centrifugation repeated. After removal of the supernatant, the cells are resuspended and combined to one 50 ml tube (per subject) and brought to a total volume of 50 ml. The cells are then counted using a hemacytometer (Reichert). After centrifugation under the same conditions, the supernatant is removed and the cells processed using the appropriate Miltenyi Biotec (Auburn, Calif.) negative selection kit to enrich for the desired cell type according to manufacturers instructions. The resulting purified cells are then diluted to 50 ml with IMDM. After centrifugation at 500×g for 10 minutes, the supernatant is removed and the cells resuspended in 15 ml IMDM supplemented with 0.5% heat inactivated fetal calf serum (FCS) (ATCC, Manassas, Va.). After another centrifugation for 10 minutes at 500×g, the supernatant is again removed and the cells resuspended in 7 ml 0.5% FCS in IMDM (assay medium) and transferred to a 15 ml conical centrifuge tube. The cells are then quantitated using a hemacytometer. When enriching for monocytes, the concentration of cells is adjusted to 2×10^7 per ml by centrifugation and removal of the appropriate volume of assay medium. For all other cell types, the tube cap is replaced with one from a 25 cm^2 tissue culture flask (Corning) and the cells stored overnight in a humidified 37° C. incubator with 5% CO2. The concentration of the cells is adjusted as for monocytes just prior to transmigration assay of Example 9.
(§3) Migration away from a chemical or biological agent (chemorepulsion (CR)) was measured using ChemoTx plates (Neuroprobe). These plates contain a planar polycarbonate or polyester membrane that has been etched and perforated so that cells can move along the etched tracks and fall through perforation holes, enabling the cells to be collected and the number of migrated cells quantified (FIGS. 5-6). Several dilutions (normally 4 in 10-fold increments) are prepared of the agent of interest. For neutrophils, plates with 3 μm pore membranes are used, while for all other primary cell types, 5 μm pore membranes are used. Membranes may, or may not, be coated with polyvinylpyrrolidine (PVP) as a wetting agent.
(§4) For spontaneous migration controls and chemorepulsion (CR) assays, 31 μl of assay medium is pipetted into the lower well of the transmigration apparatus (FIGS. 5-6). For spontaneous migration controls and chemoattraction (CA) assays, 29 μl of assay medium is pipetted into upper chamber of the transmigration apparatus (FIG. 5). For CR, the upper well assay medium contains the agent or candidate chemorepellent. […]

Monocytes = assay: as above; format: cell-based, human; conditions: mean of three donors at concentration of highest activity, range 0.00125-1.25 μM
Text: as §1, §2
It is noted that this procedure may be used to isolate and/or purify monocytes. In the monocyte purification method, a further step is included for platelet removal via the use of CD61 microbeads also purchased from Miltenyi Biotec (Auburn, Calif.).
as §3
For spontaneous migration controls and chemorepulsion (CR) assays, 31 μl of assay medium is pipetted into the lower well of the transmigration apparatus (FIGS. 5-6). […]

Neutrophils = assay: as above; format: cell-based, human; conditions: Neutrophils; mean of three donors at concentration of highest activity; range 0.00125-1.25 μM
[1] = tested on: Eo-HL60 (HL-60 clone 15 differentiated to eosinophil-like phenotype); assay: Trans-well migration assay (Example 1), net migratory response; format: cell-based, human; conditions: net observed response
[2] = tested on: Human primary neutrophils; assay: Trans-well migration assay (Example 3 method), unimodal fugetaxin test; format: cell-based; parameters: key to Unimodal fugetaxin hit, Neutrophils: A “+” in the Table indicates a positive hit as a unimodal fugetaxin, as that term is defined herein, for that particular cell type; conditions: human neutrophils; methods of Example 3
[3] = tested on: Human primary CD8+ lymphocytes; assay: as above; format: cell-based; parameters: key: A “+” in the Table indicates a positive hit as a unimodal fugetaxin, as that term is defined herein, for that particular cell type; conditions: methods of Example 3
[4] = tested on: Human primary CD4+ lymphocytes; assay: as above; format: cell-based; parameters: key: A “+” in the Table indicates a positive hit as a unimodal fugetaxin, as that term is defined herein, for that particular cell type; conditions: methods of Example 3
CD8+ = assay: High throughput transmigration assay (Example 9), chemorepulsion; format: cell-based, human; conditions: mean of three donors at concentration of highest activity, range 0.00125-1.25 μM
Text: as §1, §2, §3, §4

Molecule	Repellent Index (B cells)	Repellent Index (Monocytes)	Repellent Index (Neutrophils)	further results
CCL2: chemokine	1.5	1.7	–	–
CCL7: chemokine	–	2.3	–	–
CCL13: chemokine	–	2.6	–	–
Pam3CSK4 [reference compound]	–	–	4.9	Migratory Response [1]: chemorepulsion; Unimodal fugetaxin hit, Neutrophils [2]: +; Unimodal fugetaxin hit, CD8+ [3]: +; Unimodal fugetaxin hit, CD4+ [4]: +
HSP25: heat shock protein; accession AAA37862 (protein, UniProt P14602 1-209, looked up) Heat shock protein beta-1: MTERRVPFSLLRSPSWEPFRDWYPAHSRLFDQAFGVPRLPDEWSQWFSAAGWPGYVRPLPAATAEGPAAVTLAAPAFSRALNRQLSSGVSEIRQTADRWRVSLDVNHFAPEELTVKTKEGVVEITGKHEERQDEHGYISRCFTRKYTLPPGVDPTLVSSSLSPEGTLTVEAPLPKAVTQSAEITIPVTFEARAQIGGPEAGKSEQSGAK	–	–	11.9	Repellent Index (CD8+): 1.3; Unimodal fugetaxin hit, Neutrophils [2]: +
CCL15: chemokine (protein, UniProt Q16663 22-113, looked up) C-C motif chemokine 15: QFTNDAETELMMSKLPLENPVVLNSFHFAADCCTSYISQSIPCSLMKSYFETSSECSKPGVIFLTKKGRQVCAKPSGPGVQDCMKKLKPYSI	–	1.4	–	–
HSP47 Human: heat shock protein; accession AAP35758 (protein, UniProt P50454 19-418, looked up) Serpin H1: AEVKKPAAAAAPGTAEKLSPKAATLAERSAGLAFSLYQAMAKDQAVENILVSPVVVASSLGLVSLGGKATTASQAKAVLSAEQLRDEEVHAGLGELLRSLSNSTARNVTWKLGSRLYGPSSVSFADDFVRSSKQHYNCEHSKINFRDKRSALQSINEWAAQTTDGKLPEVTKDVERTDGALLVNAMFFKPHWDEKFHHKMVDNRGFMVTRSYTVGVMMMHRTGLYNYYDDEKEKLQIVEMPLAHKLSSLIILMPHHVEPLERLEKLLTKEQLKIWMGKMQKKAVAISLPKGVVEVTHDLQKHLAGLGLTEAIDKNKADLSRMSGKKDLYLASVFHATAFELDTDGNPFDQDIYGREELRSPKLFYADHPFIFLVRDTQSGSLLFIGRLVRPKGDKMRDEL	1.5	–	1.4	Repellent Index (CD8+): 1.4; Migratory Response [1]: chemorepulsion
CCL8: chemokine (protein, UniProt P80075 24-99, looked up) C-C motif chemokine 8: QPDSVSIPITCCFNVINRKIPIQRLESYTRITNIQCPKEAVIFKTKRGKEVCADPKERWVRDSMKHLDQIFQNLKP	2.6	2.3	–	–
CXCL7: chemokine (protein, UniProt P02775 35-128, looked up) Platelet basic protein: SSTKGQTKRNLAKGKEESLDSDLYAELRCMCIKTTSGIHPKNIQSLEVIGKGTHCNQVEVIATLKDGRKICLDPDAPRIKKIVQKKLAGDESAD	–	1.4	3.9	–
